Results taken from paper PMC4041422, “Rapid kinetics of iron responsive element (IRE) RNA/iron regulatory protein 1 and IRE-RNA/eIF4F complexes respond differently to metal ions”.

T1: IRP1 (iron regulatory protein 1) (rabbit, UniProt Q01059 1-889)
T1 sequence: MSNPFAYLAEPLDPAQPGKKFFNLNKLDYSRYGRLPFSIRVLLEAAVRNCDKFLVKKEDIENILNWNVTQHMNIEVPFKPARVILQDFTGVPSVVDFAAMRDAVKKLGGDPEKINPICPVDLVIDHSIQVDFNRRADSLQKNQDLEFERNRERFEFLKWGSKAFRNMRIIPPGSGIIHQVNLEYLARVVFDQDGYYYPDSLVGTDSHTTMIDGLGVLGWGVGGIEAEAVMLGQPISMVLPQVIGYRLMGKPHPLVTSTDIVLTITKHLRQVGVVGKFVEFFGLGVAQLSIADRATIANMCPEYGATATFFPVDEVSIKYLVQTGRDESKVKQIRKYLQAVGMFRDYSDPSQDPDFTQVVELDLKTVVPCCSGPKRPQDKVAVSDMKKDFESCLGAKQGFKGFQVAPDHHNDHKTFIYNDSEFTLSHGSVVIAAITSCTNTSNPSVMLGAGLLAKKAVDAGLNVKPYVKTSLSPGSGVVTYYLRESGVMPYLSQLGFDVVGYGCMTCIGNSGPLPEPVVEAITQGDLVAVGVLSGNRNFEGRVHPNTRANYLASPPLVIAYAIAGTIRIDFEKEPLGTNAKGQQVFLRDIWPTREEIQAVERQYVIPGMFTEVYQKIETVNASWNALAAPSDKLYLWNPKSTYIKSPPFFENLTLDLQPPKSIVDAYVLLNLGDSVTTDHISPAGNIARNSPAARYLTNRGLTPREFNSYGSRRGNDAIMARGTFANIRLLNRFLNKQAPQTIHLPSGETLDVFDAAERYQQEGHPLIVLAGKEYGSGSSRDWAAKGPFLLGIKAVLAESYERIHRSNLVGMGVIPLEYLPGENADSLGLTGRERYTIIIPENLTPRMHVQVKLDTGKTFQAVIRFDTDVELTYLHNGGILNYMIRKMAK


What was measured:
Details in all cases: protein: recombinant; tags: Ni-chelate purified; hairpin with mid-helix bulge C and hexaloop
[1] = molecular target: T1, IRP1 (iron regulatory protein 1); test: stopped-flow fluorescence anisotropy (koff/kon); no Mn2+, 100 mM KCl; kon 51.5 uM-1 s-1, koff 7.0 s-1; 40 mM HEPES pH 7.2, 100 mM KCl, 1 mM MgCl2 (Methods; not listed in the Figure 2 legend), 5% glycerol, 2% 2-mercaptoethanol, 25 C; RNA 50 nM with IRP1 0.05-1 uM; eIF4F 0.1 uM with RNA 0.1-0.5 uM
[2] = molecular target: T1, IRP1 (iron regulatory protein 1); test: stopped-flow fluorescence anisotropy (koff/kon); 150 mM KCl; kon 39, koff 7.4; 40 mM HEPES pH 7.2, 100 mM KCl, 1 mM MgCl2 (Methods; not listed in the Figure 2 legend), 5% glycerol, 2% 2-mercaptoethanol, 25 C; RNA 50 nM with IRP1 0.05-1 uM; eIF4F 0.1 uM with RNA 0.1-0.5 uM
[3] = molecular target: T1, IRP1 (iron regulatory protein 1); test: stopped-flow fluorescence anisotropy (koff/kon); 5 uM Mn2+; kon 35.2, koff 7.6; 40 mM HEPES pH 7.2, 100 mM KCl, 1 mM MgCl2 (Methods; not listed in the Figure 2 legend), 5% glycerol, 2% 2-mercaptoethanol, 25 C; RNA 50 nM with IRP1 0.05-1 uM; eIF4F 0.1 uM with RNA 0.1-0.5 uM
[4] = molecular target: T1, IRP1 (iron regulatory protein 1); test: stopped-flow fluorescence anisotropy (koff/kon); 150 mM KCl; kon 209, koff 6.3; 40 mM HEPES pH 7.2, 100 mM KCl, 1 mM MgCl2 (Methods; not listed in the Figure 2 legend), 5% glycerol, 2% 2-mercaptoethanol, 25 C; RNA 50 nM with IRP1 0.05-1 uM; eIF4F 0.1 uM with RNA 0.1-0.5 uM
[5] = molecular target: T1, IRP1 (iron regulatory protein 1); test: stopped-flow fluorescence anisotropy (koff/kon); 5 uM Mn2+; kon 176, koff 9.7; 40 mM HEPES pH 7.2, 100 mM KCl, 1 mM MgCl2 (Methods; not listed in the Figure 2 legend), 5% glycerol, 2% 2-mercaptoethanol, 25 C; RNA 50 nM with IRP1 0.05-1 uM; eIF4F 0.1 uM with RNA 0.1-0.5 uM
[6] = molecular target: T1, IRP1 (iron regulatory protein 1); test: stopped-flow fluorescence anisotropy (koff/kon); no Mn2+, 100 mM KCl; kon 400 uM-1 s-1, koff 6.2 s-1; 40 mM HEPES pH 7.2, 100 mM KCl, 1 mM MgCl2 (Methods; not listed in the Figure 2 legend), 5% glycerol, 2% 2-mercaptoethanol, 25 C; RNA 50 nM with IRP1 0.05-1 uM; eIF4F 0.1 uM with RNA 0.1-0.5 uM

| Binder | Kd [1] | Kd [2] | Kd [3] | Kd [4] | Kd [5] | Kd [6] |
| --- | --- | --- | --- | --- | --- | --- |
| CCUCAUCUUUGUCAGUGCACAAAAUGGCG (structured_RNA) [ACO2 IRE-RNA, fluorescein labeled (FIACO2 IRE-RNA)] | 136 ± 2.9 nM | 190 ± 9 nM | 217 ± 7.6 nM | – | – | – |
| GUUCUUGCUUCAACAGUGUUUGAACGGAAC (structured_RNA) [FRT IRE-RNA, fluorescein labeled (FIFRT IRE-RNA)] | – | – | – | 30 ± 0.7 nM | 55 ± 2.7 nM | 15.5 ± 0.5 nM |
